The series addresses DCR-1;DRH-1;RDE-4 (Caenorhabditis elegans;Caenorhabditis …, UniProt P34529;G5EDI8;G5EBF5 1-1910;1-1037;1-385, ||). Kind of series: cryo-EM structure, 3.0 A; 5 mM ATP, 20 C; ADP modelled in DCR-1, DRH-1 and DRH-1*; Mg2+; cleavage-competent state, poised for second cleavage; RDE-4 dsRBM2 density not seen; Cryo-EM; sample buffer not given in material. Lysis/resuspension buffer 25 mM HEPES pH 7.5, 10 mM KOAc, 2 mM Mg(OAc)2, 100 mM KCl, 1 mM TCEP, 5% glycerol; RNA annealed in 50 mM Tris pH 8.0, 20 mM KCl; ATP sample incubated at 20 C. The following applies: protein: recombinant;recombinant;recombinant; (StrepTrap purification); copies: 1;1;1; 2 nt 3' overhangs at both termini.

From paper doi:10.64898/2026.08.16.745104, “C. elegans Dicer stacks with the RIG-I-like receptor DRH-1 to cleave dsRNA” come the findings set out here.

DCR-1;DRH-1;RDE-4, sequence (P34529 whole entry, chain 1 of 3): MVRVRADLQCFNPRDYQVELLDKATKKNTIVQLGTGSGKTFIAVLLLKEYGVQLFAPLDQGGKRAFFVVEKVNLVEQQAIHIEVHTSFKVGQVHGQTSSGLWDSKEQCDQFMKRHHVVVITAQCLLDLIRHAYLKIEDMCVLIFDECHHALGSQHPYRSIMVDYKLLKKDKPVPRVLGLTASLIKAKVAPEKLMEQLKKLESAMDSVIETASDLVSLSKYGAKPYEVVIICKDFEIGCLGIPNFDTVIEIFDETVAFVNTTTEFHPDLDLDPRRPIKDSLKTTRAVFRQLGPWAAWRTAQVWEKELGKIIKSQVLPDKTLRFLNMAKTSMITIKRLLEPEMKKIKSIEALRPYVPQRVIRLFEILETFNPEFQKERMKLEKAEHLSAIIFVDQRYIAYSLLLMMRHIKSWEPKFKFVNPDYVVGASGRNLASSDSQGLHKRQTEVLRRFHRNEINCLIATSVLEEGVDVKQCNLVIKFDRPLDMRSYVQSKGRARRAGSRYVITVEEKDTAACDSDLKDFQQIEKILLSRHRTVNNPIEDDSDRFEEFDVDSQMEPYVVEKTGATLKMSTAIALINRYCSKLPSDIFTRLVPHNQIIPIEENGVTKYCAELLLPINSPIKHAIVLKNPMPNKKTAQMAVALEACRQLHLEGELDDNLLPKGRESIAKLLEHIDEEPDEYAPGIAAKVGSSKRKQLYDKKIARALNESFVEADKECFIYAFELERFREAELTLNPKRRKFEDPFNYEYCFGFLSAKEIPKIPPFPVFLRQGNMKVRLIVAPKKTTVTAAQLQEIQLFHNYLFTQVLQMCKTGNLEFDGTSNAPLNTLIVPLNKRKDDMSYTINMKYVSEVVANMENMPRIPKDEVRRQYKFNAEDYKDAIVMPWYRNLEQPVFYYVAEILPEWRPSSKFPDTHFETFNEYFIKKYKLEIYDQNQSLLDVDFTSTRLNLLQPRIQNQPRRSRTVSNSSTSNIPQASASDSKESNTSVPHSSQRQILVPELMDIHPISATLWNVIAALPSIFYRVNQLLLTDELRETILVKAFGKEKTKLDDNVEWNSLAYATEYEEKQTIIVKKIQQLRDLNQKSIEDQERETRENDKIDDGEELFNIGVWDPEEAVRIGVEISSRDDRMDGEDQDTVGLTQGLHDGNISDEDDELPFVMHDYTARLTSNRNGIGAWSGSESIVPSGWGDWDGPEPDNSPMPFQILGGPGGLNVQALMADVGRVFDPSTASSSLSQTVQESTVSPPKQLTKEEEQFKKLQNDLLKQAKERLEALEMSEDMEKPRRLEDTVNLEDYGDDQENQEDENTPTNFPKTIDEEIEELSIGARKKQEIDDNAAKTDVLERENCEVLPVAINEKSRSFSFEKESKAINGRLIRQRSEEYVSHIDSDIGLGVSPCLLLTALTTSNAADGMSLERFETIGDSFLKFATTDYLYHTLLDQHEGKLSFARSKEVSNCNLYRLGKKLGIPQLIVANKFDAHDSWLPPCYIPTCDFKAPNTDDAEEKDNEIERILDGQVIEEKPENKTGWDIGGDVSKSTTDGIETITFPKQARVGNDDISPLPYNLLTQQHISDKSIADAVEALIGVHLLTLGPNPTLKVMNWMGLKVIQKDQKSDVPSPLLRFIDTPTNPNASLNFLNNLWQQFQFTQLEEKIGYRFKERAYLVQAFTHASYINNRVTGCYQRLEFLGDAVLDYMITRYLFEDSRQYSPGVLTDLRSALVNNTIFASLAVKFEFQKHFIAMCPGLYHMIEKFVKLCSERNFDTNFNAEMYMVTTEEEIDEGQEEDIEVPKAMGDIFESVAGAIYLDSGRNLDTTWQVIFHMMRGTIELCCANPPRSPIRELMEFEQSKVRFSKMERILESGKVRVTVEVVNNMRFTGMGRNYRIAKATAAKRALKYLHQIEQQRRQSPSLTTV
DCR-1;DRH-1;RDE-4, sequence (chain, as listed by the source ||, chain 2 of 3): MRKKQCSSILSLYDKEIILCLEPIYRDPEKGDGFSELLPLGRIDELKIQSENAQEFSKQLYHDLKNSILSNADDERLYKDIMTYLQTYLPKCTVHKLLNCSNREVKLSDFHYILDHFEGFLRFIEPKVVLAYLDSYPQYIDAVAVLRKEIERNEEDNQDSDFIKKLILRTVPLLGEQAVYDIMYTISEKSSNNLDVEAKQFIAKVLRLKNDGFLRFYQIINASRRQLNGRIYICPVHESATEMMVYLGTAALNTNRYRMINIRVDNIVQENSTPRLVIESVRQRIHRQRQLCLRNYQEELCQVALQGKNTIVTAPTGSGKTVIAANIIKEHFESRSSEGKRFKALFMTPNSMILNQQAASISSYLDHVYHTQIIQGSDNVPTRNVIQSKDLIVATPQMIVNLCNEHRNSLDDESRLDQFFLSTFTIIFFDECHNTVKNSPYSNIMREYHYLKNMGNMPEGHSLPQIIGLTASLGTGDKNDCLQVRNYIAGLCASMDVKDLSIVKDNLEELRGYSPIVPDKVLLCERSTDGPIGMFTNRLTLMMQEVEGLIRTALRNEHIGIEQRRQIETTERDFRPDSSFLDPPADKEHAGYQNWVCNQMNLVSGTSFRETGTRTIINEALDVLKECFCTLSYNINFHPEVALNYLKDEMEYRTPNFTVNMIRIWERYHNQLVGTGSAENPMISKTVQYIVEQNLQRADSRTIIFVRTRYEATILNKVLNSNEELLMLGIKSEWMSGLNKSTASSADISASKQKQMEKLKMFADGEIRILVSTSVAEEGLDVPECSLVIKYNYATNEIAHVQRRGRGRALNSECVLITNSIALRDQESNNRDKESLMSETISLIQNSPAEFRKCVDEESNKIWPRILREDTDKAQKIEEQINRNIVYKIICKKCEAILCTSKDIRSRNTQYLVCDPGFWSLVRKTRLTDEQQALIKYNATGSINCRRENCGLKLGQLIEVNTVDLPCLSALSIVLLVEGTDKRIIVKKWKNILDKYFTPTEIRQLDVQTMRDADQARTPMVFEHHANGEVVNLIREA
DCR-1;DRH-1;RDE-4, sequence (chain, as listed by the source ||, chain 3 of 3): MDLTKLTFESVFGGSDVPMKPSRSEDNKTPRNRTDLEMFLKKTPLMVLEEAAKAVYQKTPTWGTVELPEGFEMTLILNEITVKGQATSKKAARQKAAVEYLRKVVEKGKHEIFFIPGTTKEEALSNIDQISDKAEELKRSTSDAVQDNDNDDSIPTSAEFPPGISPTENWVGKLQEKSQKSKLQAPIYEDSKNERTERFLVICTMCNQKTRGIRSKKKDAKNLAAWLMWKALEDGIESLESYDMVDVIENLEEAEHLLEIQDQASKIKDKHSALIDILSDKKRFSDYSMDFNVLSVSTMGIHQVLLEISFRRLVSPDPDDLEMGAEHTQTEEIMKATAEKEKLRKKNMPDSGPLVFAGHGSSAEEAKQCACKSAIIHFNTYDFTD

B1: 3'ovr 106-dsRNA (dsRNA)
RNA 1: GGCAAUGAAAGACGGUGAGCUGGUGAUAUGGGAUAGUGUUCACCCUUGUUACACCGUUUUCCAUGAGCAAACUGAAACGUUUUCAUCGCUCUGGAGUGAAUACCAA
RNA 2: GGUAUUCACUCCAGAGCGAUGAAAACGUUUCAGUUUGCUCAUGGAAAACGGUGUAACAAGGGUGAACACUAUCCCAUAUCACCAGCUCACCGUCUUUCAUUGCCAA
B1: the binding result is reported as “binds”.
